# Measurements as given in PMC8614642.
# Target: recombinant K38 depolymerase region (residues 147-742) of the tailspike gp46 of Acinetobacter pittii phage vB_Api_3043-K38 (Acinetobacter pittii phage vB_Api_3043-K38)
# Assay: SEC; analytical size exclusion on Superose 6 10/300 GL, 10 mM PBS pH 7.5, 4 °C, 0.75 mL/min, mass estimated from calibration standards
substance,measurement,value
recombinant K38 depolymerase region (residues 147-742) of the tailspike gp46 of Acinetobacter pittii phage vB_Api_3043-K38 (domain or fragment),stoichiometry N,3
